Here are results for 3 molecules from publication PMC11863153, “Mechanistic Insights Into Oxidative Response of Heat Shock Factor 1 Condensates” (JACS Au, 2025).

Changes are numbered by the printed parent chain. Numbers in names are those of the source. Where “and” joins values, the source holds several entries; their conditions need not be identical. Equal entries are not always repeated.

In data set [1] the target is T1, Heat shock factor 1 (Hsf1) wild-type (human), Q00613.
T1 chain: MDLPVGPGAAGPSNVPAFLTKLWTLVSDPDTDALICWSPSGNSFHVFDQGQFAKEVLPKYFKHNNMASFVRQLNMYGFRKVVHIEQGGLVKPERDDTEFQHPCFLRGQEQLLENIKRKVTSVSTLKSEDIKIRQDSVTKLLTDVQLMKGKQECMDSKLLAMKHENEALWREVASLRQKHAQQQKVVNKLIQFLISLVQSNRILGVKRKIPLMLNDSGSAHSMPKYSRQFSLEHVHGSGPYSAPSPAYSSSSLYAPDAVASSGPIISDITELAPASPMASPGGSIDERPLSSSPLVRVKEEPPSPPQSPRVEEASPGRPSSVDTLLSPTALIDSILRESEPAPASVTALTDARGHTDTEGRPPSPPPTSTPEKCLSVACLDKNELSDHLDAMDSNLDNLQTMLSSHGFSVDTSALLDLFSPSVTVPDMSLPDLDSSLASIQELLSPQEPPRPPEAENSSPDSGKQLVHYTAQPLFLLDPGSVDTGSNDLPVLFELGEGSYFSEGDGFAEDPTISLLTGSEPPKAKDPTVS
As to the kind of experiment: SEC-MALS; without reductant (oxidative conditions); 50 uM injected; 25 mM HEPES/KOH pH 7.2, 150 mM KCl; Bio SEC-5 1000 A column; oligomer size from the median molar mass. Conditions: remark: other sources report otherwise. A general note: SEC sorts molecules by how far they enter the pores of the column.

Data set [2] addresses T1, Heat shock factor 1 (Hsf1) wild-type …. As to the kind of experiment: SEC-MALS; with 10 mM DTT (+ Reductant); 50 uM injected; 25 mM HEPES/KOH pH 7.2, 150 mM KCl; Bio SEC-5 1000 A column; oligomer size from the median molar mass. Conditions: remark: other sources report otherwise.
Data set [3] concerns the molecule itself. As to the kind of experiment: SEC-MALS; without reductant (oxidative conditions); 50 uM injected; 25 mM HEPES/KOH pH 7.2, 150 mM KCl; Bio SEC-5 1000 A column; oligomer size from the median molar mass.
Data set [4] deals with the molecule itself. As to the kind of experiment: SEC; analytical SEC at varying protein concentrations; change of elution volume with decreasing concentration.

B1: Heat shock factor 1 (Hsf1) wild-type, Q00613 1-529 (natural protein)
chain: T1 chain
Turning to B1, the stoichiometry N (commonly a count of units in the complex or per binding partner) is 9 mer and < 16 mer in data set [1]; 7 mer in data set [2].

B2: Hsf1 CS5 mutant (C36S/C103S/C153S/C373S/C378S) (natural protein, human, UniProt Q00613 1-529, looked up)
chain: T1 chain with C36S, C103S, C153S, C373S, C378S
notes: Heat shock factor 1 (Hsf1), human, all five cysteines replaced with serine; also called Hsf1 CS mutant; source: E. coli BL21(DE3), purified (Ni-NTA, HRV3C cleavage, HiTrap Q anion exchange, Superdex 200 gel filtration); not shown: GB1, N-terminal, cleaved; His6, N-terminal, cleaved
In the case of B2, in data set [3], the “stoichiometry N” value was roughly 5 mer.

B3: Hsf1 C153S mutant (natural protein, human, UniProt Q00613 1-529, looked up)
chain: T1 chain with C153S
notes: Heat shock factor 1 (Hsf1), human, C153S in the leucine-zipper domain LZ1-3; source: E. coli BL21(DE3), purified (Ni-NTA, HRV3C cleavage, HiTrap Q anion exchange, Superdex 200 gel filtration); not shown: GB1, N-terminal, cleaved; His6, N-terminal, cleaved
Take B3: the binding result in data set [4] is on record as “binds”.
